Starred links: 1 amine or outer side, 2 acyl side, 3 side chain; linkers in the order of their positions; H or OH if unused. Non-standard residues stand in square brackets, D forms with d. Groups on a side chain read outwards from the residue. *: point of attachment. Tet2 = (S)-2-amino-4-(1H-tetrazol-5-yl)butanoic acid, O=C([C@H](CCc1nn[nH]n1)N[*:1])[*:2]; Ala(1H-tetrazol-5-yl) = N[C@@H](Cc1nnn[nH]1)C(=O)O; C18 diacid = O=C(O)CCCCCCCCCCCCCCCCC(=O)*; Dip = N[C@H](C(=O)O)C(c1ccccc1)c1ccccc1; His(τ-Me) = Cn1cnc(C[C@H](N)C(=O)O)c1; Palmitoyl = CCCCCCCCCCCCCCCC(=O)*; β3hF = N[C@H](CC(=O)O)Cc1ccccc1; His(1-Me) = 1-methylhistidine; Isovaleryl = CC(C)CC(=O)*; AEEA = NCCOCCOCC(=O)O; Ahx = NCCCCCC(=O)O
T1: human ferroportin (SLC40A1) fused in frame with GFP, stably expressed in HEK293 cells (human, UniProt Q9NP59 1-571)
T1 sequence (looked up): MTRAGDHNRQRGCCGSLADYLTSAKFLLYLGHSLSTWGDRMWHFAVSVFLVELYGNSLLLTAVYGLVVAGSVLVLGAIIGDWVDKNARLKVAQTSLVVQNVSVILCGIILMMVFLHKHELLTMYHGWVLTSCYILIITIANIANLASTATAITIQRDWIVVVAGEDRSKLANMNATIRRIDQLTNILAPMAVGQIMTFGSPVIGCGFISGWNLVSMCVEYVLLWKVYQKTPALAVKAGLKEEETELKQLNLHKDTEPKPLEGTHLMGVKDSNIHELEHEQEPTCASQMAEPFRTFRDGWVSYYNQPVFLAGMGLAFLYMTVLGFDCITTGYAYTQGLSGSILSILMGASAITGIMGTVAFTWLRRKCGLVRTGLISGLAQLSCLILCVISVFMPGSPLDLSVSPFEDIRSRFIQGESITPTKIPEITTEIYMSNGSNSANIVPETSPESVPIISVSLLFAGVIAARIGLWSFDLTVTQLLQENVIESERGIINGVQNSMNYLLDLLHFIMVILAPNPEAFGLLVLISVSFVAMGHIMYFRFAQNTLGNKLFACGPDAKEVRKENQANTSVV


Target: T1, human ferroportin (SLC40A1) fused in …
Assay: cell-based or functional assay

| Binder | FPN EC50 [nM] |
| --- | --- |
| Isovaleryl-ETH[Dip]PAI[dK]AK([Ahx-Palmitoyl])[dK]A-NH2 (SMILES CCCCCCCCCCCCCCCC(=O)NCCCCCC(=O)NCCCC[C@H](NC(=O)[C@H](C)NC(=O)[C@@H](CCCCN)NC(=O)[C@@H](NC(=O)[C@H](C)NC(=O)[C@@H]1CCCN1C(=O)[C@@H](NC(=O)[C@H](Cc1c[nH]cn1)NC(=O)[C@@H](NC(=O)[C@H](CCC(=O)O)NC(=O)CC(C)C)[C@@H](C)O)C(c1ccccc1)c1ccccc1)[C@@H](C)CC)C(=O)N[C@H](CCCCN)C(=O)N[C@@H](C)C(N)=O) [Isovaleric Acid-E-T-H-[Dpa]-P-A-I-[(D)Lys]-A-[Lys(Ahx_Palm)]-[(D)Lys]-A-NH2] | 50.6 |
| Isovaleryl-ETH[Dip]PFI[dK][β3hF]K([Ahx-Palmitoyl])-NH2 (SMILES CCCCCCCCCCCCCCCC(=O)NCCCCCC(=O)NCCCC[C@H](NC(=O)C[C@H](Cc1ccccc1)NC(=O)[C@@H](CCCCN)NC(=O)[C@@H](NC(=O)[C@H](Cc1ccccc1)NC(=O)[C@@H]1CCCN1C(=O)[C@@H](NC(=O)[C@H](Cc1c[nH]cn1)NC(=O)[C@@H](NC(=O)[C@H](CCC(=O)O)NC(=O)CC(C)C)[C@@H](C)O)C(c1ccccc1)c1ccccc1)[C@@H](C)CC)C(N)=O) [Isovaleric Acid-E-T-H-[Dpa]-P-F-I-[(D)Lys]-[bhPhe]-[Lys(Ahx_Palm)]-NH2] | 24.1 |
| Isovaleryl-EAH[Dip]PAI[dK][β3hF]K([Ahx-Palmitoyl])[dK]A-NH2 (SMILES CCCCCCCCCCCCCCCC(=O)NCCCCCC(=O)NCCCC[C@H](NC(=O)C[C@H](Cc1ccccc1)NC(=O)[C@@H](CCCCN)NC(=O)[C@@H](NC(=O)[C@H](C)NC(=O)[C@@H]1CCCN1C(=O)[C@@H](NC(=O)[C@H](Cc1c[nH]cn1)NC(=O)[C@H](C)NC(=O)[C@H](CCC(=O)O)NC(=O)CC(C)C)C(c1ccccc1)c1ccccc1)[C@@H](C)CC)C(=O)N[C@H](CCCCN)C(=O)N[C@@H](C)C(N)=O) [Isovaleric Acid-E-A-H-[Dpa]-P-A-I-[(D)Lys]-[bhPhe]-[Lys(Ahx_Palm)]-[(D)Lys]-A-NH2] | 492 |
| Isovaleryl-[Ala(1H-tetrazol-5-yl)]T[His(τ-Me)][Dip]PAIK(Ac)[β3hF][dK]A-NH2 (SMILES CC[C@H](C)[C@H](NC(=O)[C@H](C)NC(=O)[C@@H]1CCCN1C(=O)[C@@H](NC(=O)[C@H](Cc1cn(C)cn1)NC(=O)[C@@H](NC(=O)[C@H](Cc1nnn[nH]1)NC(=O)CC(C)C)[C@@H](C)O)C(c1ccccc1)c1ccccc1)C(=O)N[C@@H](CCCCNC(C)=O)C(=O)N[C@H](CC(=O)N[C@H](CCCCN)C(=O)N[C@@H](C)C(N)=O)Cc1ccccc1) [Isovaleric Acid-[Tet1]-T-[(1-Me)His]-[Dpa]-P-A-I-[Lys(Ac)]-[bhPhe]-[(D)Lys]-A-NH2] | > 3000 |
| Isovaleryl-ETA[Dip]PAI[dK][β3hF]K([Ahx-Palmitoyl])[dK]A-NH2 (SMILES CCCCCCCCCCCCCCCC(=O)NCCCCCC(=O)NCCCC[C@H](NC(=O)C[C@H](Cc1ccccc1)NC(=O)[C@@H](CCCCN)NC(=O)[C@@H](NC(=O)[C@H](C)NC(=O)[C@@H]1CCCN1C(=O)[C@@H](NC(=O)[C@H](C)NC(=O)[C@@H](NC(=O)[C@H](CCC(=O)O)NC(=O)CC(C)C)[C@@H](C)O)C(c1ccccc1)c1ccccc1)[C@@H](C)CC)C(=O)N[C@H](CCCCN)C(=O)N[C@@H](C)C(N)=O) [Isovaleric Acid-E-T-A-[Dpa]-P-A-I-[(D)Lys]-[bhPhe]-[Lys(Ahx_Palm)]-[(D)Lys]-A-NH2] | 356 |
| Isovaleryl-ETH[Dip]PSI[dK][β3hF]K([Ahx-Palmitoyl])-NH2 (SMILES CCCCCCCCCCCCCCCC(=O)NCCCCCC(=O)NCCCC[C@H](NC(=O)C[C@H](Cc1ccccc1)NC(=O)[C@@H](CCCCN)NC(=O)[C@@H](NC(=O)[C@H](CO)NC(=O)[C@@H]1CCCN1C(=O)[C@@H](NC(=O)[C@H](Cc1c[nH]cn1)NC(=O)[C@@H](NC(=O)[C@H](CCC(=O)O)NC(=O)CC(C)C)[C@@H](C)O)C(c1ccccc1)c1ccccc1)[C@@H](C)CC)C(N)=O) [Isovaleric Acid-E-T-H-[Dpa]-P-S-I-[(D)Lys]-[bhPhe]-[Lys(Ahx_Palm)]-NH2] | 46.3 |
| Isovaleryl-ATH[Dip]PAI[dK][β3hF]K([Ahx-Palmitoyl])-NH2 [Isovaleric Acid-A-T-H-[Dpa]-P-A-I-[(D)Lys]-[bhPhe]-[Lys(Ahx_Palm)]-NH2] | 40.6 |
| Isovaleryl-[Tet2]TH[Dip]PAIK(Ac)[β3hF][dK]A-NH2 (SMILES CC[C@H](C)[C@H](NC(=O)[C@H](C)NC(=O)[C@@H]1CCCN1C(=O)[C@@H](NC(=O)[C@H](Cc1c[nH]cn1)NC(=O)[C@@H](NC(=O)[C@H](CCc1nn[nH]n1)NC(=O)CC(C)C)[C@@H](C)O)C(c1ccccc1)c1ccccc1)C(=O)N[C@@H](CCCCNC(C)=O)C(=O)N[C@H](CC(=O)N[C@H](CCCCN)C(=O)N[C@@H](C)C(N)=O)Cc1ccccc1) [Isovaleric Acid-[Tet2]-T-H-[Dpa]-P-A-I-[Lys(Ac)]-[bhPhe]-[(D)Lys]-A-NH2] | 117 |
| Isovaleryl-[Tet2]T[His(τ-Me)][Dip]PAIK(Ac)[β3hF][dK]A-NH2 [Isovaleric Acid-[Tet2]-T-[(1-Me)His]-[Dpa]-P-A-I-[Lys(Ac)]-[bhPhe]-[(D)Lys]-A-NH2] | > 3000 |

Continued, values first:

| FPN EC50 [nM] | Binder |
| --- | --- |
| > 3000 | Isovaleryl-[Tet2]T[His(τ-Me)][Dip]PAIK(Ac)[β3hF][dK]-NH2 (SMILES CC[C@H](C)[C@H](NC(=O)[C@H](C)NC(=O)[C@@H]1CCCN1C(=O)[C@@H](NC(=O)[C@H](Cc1cn(C)cn1)NC(=O)[C@@H](NC(=O)[C@H](CCc1nn[nH]n1)NC(=O)CC(C)C)[C@@H](C)O)C(c1ccccc1)c1ccccc1)C(=O)N[C@@H](CCCCNC(C)=O)C(=O)N[C@H](CC(=O)N[C@H](CCCCN)C(N)=O)Cc1ccccc1) [Isovaleric Acid-[Tet2]-T-[(1-Me)His]-[Dpa]-P-A-I-[Lys(Ac)]-[bhPhe]-[(D)Lys]-NH2] |
| 91.9 | Isovaleryl-ETH[Dip]PK([Ahx-Palmitoyl])I[dK][β3hF]K(Ac)-NH2 (SMILES CCCCCCCCCCCCCCCC(=O)NCCCCCC(=O)NCCCC[C@H](NC(=O)[C@@H]1CCCN1C(=O)[C@@H](NC(=O)[C@H](Cc1c[nH]cn1)NC(=O)[C@@H](NC(=O)[C@H](CCC(=O)O)NC(=O)CC(C)C)[C@@H](C)O)C(c1ccccc1)c1ccccc1)C(=O)N[C@H](C(=O)N[C@H](CCCCN)C(=O)N[C@H](CC(=O)N[C@@H](CCCCNC(C)=O)C(N)=O)Cc1ccccc1)[C@@H](C)CC) [Isovaleric Acid-E-T-H-[Dpa]-P-[Lys(Ahx_Palm)]-I-[(D)Lys]-[bhPhe]-[Lys(Ac)]-NH2] |
| 325 | Isovaleryl-ETH[Dip]PAIK([AEEA-AEEA-Ahx-C18 diacid])[dK][β3hF][dK]A-NH2 (SMILES CC[C@H](C)[C@H](NC(=O)[C@H](C)NC(=O)[C@@H]1CCCN1C(=O)[C@@H](NC(=O)[C@H](Cc1c[nH]cn1)NC(=O)[C@@H](NC(=O)[C@H](CCC(=O)O)NC(=O)CC(C)C)[C@@H](C)O)C(c1ccccc1)c1ccccc1)C(=O)N[C@@H](CCCCNC(=O)COCCOCCNC(=O)COCCOCCNC(=O)CCCCCNC(=O)CCCCCCCCCCCCCCCCC(=O)O)C(=O)N[C@H](CCCCN)C(=O)N[C@H](CC(=O)N[C@H](CCCCN)C(=O)N[C@@H](C)C(N)=O)Cc1ccccc1) [Isovaleric Acid-E-T-H-[Dpa]-P-A-I-[Lys(1Peg2_1Peg2_Ahx_C18_Diacid-[(D)Lys]-[bhPhe]-[(D)Lys]-A-NH2] |
| 18.9 | Isovaleryl-[Ala(1H-tetrazol-5-yl)]TH[Dip]PAIK(Ac)[β3hF][dK]A-NH2 (SMILES CC[C@H](C)[C@H](NC(=O)[C@H](C)NC(=O)[C@@H]1CCCN1C(=O)[C@@H](NC(=O)[C@H](Cc1c[nH]cn1)NC(=O)[C@@H](NC(=O)[C@H](Cc1nnn[nH]1)NC(=O)CC(C)C)[C@@H](C)O)C(c1ccccc1)c1ccccc1)C(=O)N[C@@H](CCCCNC(C)=O)C(=O)N[C@H](CC(=O)N[C@H](CCCCN)C(=O)N[C@@H](C)C(N)=O)Cc1ccccc1) [Isovaleric Acid-[Tet1]-T-H-[Dpa]-P-A-I-[Lys(Ac)]-[bhPhe]-[(D)Lys]-A-NH2] |
| 682 | Isovaleryl-ETH[Dip]PEI[dK][β3hF]K([Ahx-Palmitoyl])-NH2 (SMILES CCCCCCCCCCCCCCCC(=O)NCCCCCC(=O)NCCCC[C@H](NC(=O)C[C@H](Cc1ccccc1)NC(=O)[C@@H](CCCCN)NC(=O)[C@@H](NC(=O)[C@H](CCC(=O)O)NC(=O)[C@@H]1CCCN1C(=O)[C@@H](NC(=O)[C@H](Cc1c[nH]cn1)NC(=O)[C@@H](NC(=O)[C@H](CCC(=O)O)NC(=O)CC(C)C)[C@@H](C)O)C(c1ccccc1)c1ccccc1)[C@@H](C)CC)C(N)=O) [Isovaleric Acid-E-T-H-[Dpa]-P-E-I-[(D)Lys]-[bhPhe]-[Lys(Ahx_Palm)]-NH2] |
| > 3000 | Isovaleryl-ET[His(1-Me)][Dip]PAIK(Ac)[β3hF][dK]A-NH2 [Isovaleric Acid-E-T-[(1-Me)His]-[Dpa]-P-A-I-[Lys(Ac)]-[bhPhe]-[(D)Lys]-A-NH2] |
| 532 | Isovaleryl-ETH[Dip]P[dK]I[dK][β3hF]K([Ahx-Palmitoyl])-NH2 (SMILES CCCCCCCCCCCCCCCC(=O)NCCCCCC(=O)NCCCC[C@H](NC(=O)C[C@H](Cc1ccccc1)NC(=O)[C@@H](CCCCN)NC(=O)[C@@H](NC(=O)[C@@H](CCCCN)NC(=O)[C@@H]1CCCN1C(=O)[C@@H](NC(=O)[C@H](Cc1c[nH]cn1)NC(=O)[C@@H](NC(=O)[C@H](CCC(=O)O)NC(=O)CC(C)C)[C@@H](C)O)C(c1ccccc1)c1ccccc1)[C@@H](C)CC)C(N)=O) [Isovaleric Acid-E-T-H-[Dpa]-P-[(D)Lys]-I-[(D)Lys]-[bhPhe]-[Lys(Ahx_Palm)]-NH2] |
| 915 | Isovaleryl-ETH[Dip]PAI[β3hF][dK]A-NH2 (SMILES CC[C@H](C)[C@H](NC(=O)[C@H](C)NC(=O)[C@@H]1CCCN1C(=O)[C@@H](NC(=O)[C@H](Cc1c[nH]cn1)NC(=O)[C@@H](NC(=O)[C@H](CCC(=O)O)NC(=O)CC(C)C)[C@@H](C)O)C(c1ccccc1)c1ccccc1)C(=O)N[C@H](CC(=O)N[C@H](CCCCN)C(=O)N[C@@H](C)C(N)=O)Cc1ccccc1) [Isovaleric Acid-E-T-H-[Dpa]-P-A-I-[bhPhe]-[(D)Lys]-A-NH2] |

— US20240066131A1 (Protagonist Therapeutics, Inc., priority 2020, published 2024)
